3 molecules from patent US20220170038A1 (COMMONWEALTH SCIENTIFIC INDUSTRIAL RESEARCH ORGANISATION, published 2022) can be followed below.

First the molecules themselves.
T1: scar9::GG::NifS::HA (MPP-processed product of the MTP-FAγ51::NifS::HA fusion polypeptide encoded by SN31) (Klebsiella oxytoca, UniProt P05344 1-397)
T1 construct: This processed form was the one found in the eluate with NifU::TS; also called scar9-NifS::HA; processed NifS
T1 sequence: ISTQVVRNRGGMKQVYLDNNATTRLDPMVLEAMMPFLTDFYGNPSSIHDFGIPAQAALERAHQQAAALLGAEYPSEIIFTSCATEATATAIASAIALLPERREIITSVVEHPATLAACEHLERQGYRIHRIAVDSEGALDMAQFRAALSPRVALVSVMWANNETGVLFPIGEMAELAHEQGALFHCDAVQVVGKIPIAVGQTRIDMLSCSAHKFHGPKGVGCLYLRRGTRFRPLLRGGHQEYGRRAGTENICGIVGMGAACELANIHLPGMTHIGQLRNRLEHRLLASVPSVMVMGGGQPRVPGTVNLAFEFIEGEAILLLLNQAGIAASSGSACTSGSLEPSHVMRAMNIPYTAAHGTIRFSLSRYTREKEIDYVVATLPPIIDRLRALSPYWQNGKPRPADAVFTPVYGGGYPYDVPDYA

T2: scar9::GG::NifU::HA (MPP-processed product of the MTP-FAγ51::NifU::HA fusion polypeptide encoded by SN32) (Klebsiella oxytoca, UniProt P05343 1-274)
T2 construct: also called scar9::NifU::HA; processed NifU
T2 sequence: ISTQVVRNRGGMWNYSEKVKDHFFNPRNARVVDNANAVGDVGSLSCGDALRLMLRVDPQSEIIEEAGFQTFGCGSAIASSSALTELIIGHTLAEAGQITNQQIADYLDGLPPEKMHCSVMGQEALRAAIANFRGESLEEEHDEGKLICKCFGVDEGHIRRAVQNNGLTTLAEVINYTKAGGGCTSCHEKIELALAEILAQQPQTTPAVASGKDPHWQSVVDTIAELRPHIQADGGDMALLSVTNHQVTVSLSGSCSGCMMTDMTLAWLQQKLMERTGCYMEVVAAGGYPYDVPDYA

B1: scar9::GG::NifU::TS (MPP-processed product of the MTP-FAγ51::NifU::TwinStrep fusion polypeptide encoded by SN166) (other)
chain: not shown
notes: Expressed in N. benthamiana leaves with mitochondrial targeting; N-terminal analysis and the tryptic peptide ISTQVVR confirmed cleavage at the intended MPP site; SEC indicated a heterotetramer of 2 NifS and 2 NifU; also called scar9-NifU::TS; scar9-NifU-TwinStrep
B2: MTP-FAγ51::NifS::HA fusion polypeptide encoded by SN31, unprocessed form (enzyme)
chain: MMAMAVFRREGRRLLPSIAARPIAAIRSPLSSDQEEGLLGVRSISTQVVRNRGGMKQVYLDNNATTRLDPMVLEAMMPFLTDFYGNPSSIHDFGIPAQAALERAHQQAAALLGAEYPSEIIFTSCATEATATAIASAIALLPERREIITSVVEHPATLAACEHLERQGYRIHRIAVDSEGALDMAQFRAALSPRVALVSVMWANNETGVLFPIGEMAELAHEQGALFHCDAVQVVGKIPIAVGQTRIDMLSCSAHKFHGPKGVGCLYLRRGTRFRPLLRGGHQEYGRRAGTENICGIVGMGAACELANIHLPGMTHIGQLRNRLEHRLLASVPSVMVMGGGQPRVPGTVNLAFEFIEGEAILLLLNQAGIAASSGSACTSGSLEPSHVMRAMNIPYTAAHGTIRFSLSRYTREKEIDYVVATLPPIIDRLRALSPYWQNGKPRPADAVFTPVYGGGYPYDVPDYA
notes: Present in the soluble input sample but not detected in the eluate; also called unprocessed NifS; unprocessed MTP-FAγ51::NifS
B3: scar9::NifS::TS (MPP-processed product of the MTP-FAγ51::NifS::TwinStrep fusion polypeptide encoded by SN231) (enzyme)
chain: not shown
notes: Bait in the reverse pull-down; the text names scar9::NifS::TS in the eluate; also called MTP-FAγ51::NifS::TS

For experiment [1], the target named is T1, scar9::GG::NifS::HA (MPP-processed …). In words: StrepTactinXT pull-down of NifU::TS from leaves co-infiltrated with SN31 and SN166, first purification; anti-Strep and anti-HA Western blots.
For experiment [2], the target named is B1. Briefly: StrepTactinXT pull-down of NifU::TS from N. benthamiana leaves co-infiltrated with SN31 and SN166, anaerobic non-denaturing extraction; anti-HA Western blot of the eluate. Background: Immunoblotting shows a protein as a band on a membrane.
Experiment [3] has as its target T2, scar9::GG::NifU::HA (MPP-processed …). In words: StrepTactinXT pull-down of NifS::TS from leaves co-infiltrated with SN231 and SN32; anti-Strep and anti-HA Western blots.

Take B1: in experiment [1], the binding result is “binds”.

Take B2: the binding result in experiment [2] is recorded as “no binding”.

As to B3, the binding result in experiment [3] is listed as “binds”.
